Assay results: paper PMC9012472 (Science Advances, 2022)

Biological target: T1, human Inturned (human, UniProt Q9ULD6 1-942)
T1 sequence (looked up): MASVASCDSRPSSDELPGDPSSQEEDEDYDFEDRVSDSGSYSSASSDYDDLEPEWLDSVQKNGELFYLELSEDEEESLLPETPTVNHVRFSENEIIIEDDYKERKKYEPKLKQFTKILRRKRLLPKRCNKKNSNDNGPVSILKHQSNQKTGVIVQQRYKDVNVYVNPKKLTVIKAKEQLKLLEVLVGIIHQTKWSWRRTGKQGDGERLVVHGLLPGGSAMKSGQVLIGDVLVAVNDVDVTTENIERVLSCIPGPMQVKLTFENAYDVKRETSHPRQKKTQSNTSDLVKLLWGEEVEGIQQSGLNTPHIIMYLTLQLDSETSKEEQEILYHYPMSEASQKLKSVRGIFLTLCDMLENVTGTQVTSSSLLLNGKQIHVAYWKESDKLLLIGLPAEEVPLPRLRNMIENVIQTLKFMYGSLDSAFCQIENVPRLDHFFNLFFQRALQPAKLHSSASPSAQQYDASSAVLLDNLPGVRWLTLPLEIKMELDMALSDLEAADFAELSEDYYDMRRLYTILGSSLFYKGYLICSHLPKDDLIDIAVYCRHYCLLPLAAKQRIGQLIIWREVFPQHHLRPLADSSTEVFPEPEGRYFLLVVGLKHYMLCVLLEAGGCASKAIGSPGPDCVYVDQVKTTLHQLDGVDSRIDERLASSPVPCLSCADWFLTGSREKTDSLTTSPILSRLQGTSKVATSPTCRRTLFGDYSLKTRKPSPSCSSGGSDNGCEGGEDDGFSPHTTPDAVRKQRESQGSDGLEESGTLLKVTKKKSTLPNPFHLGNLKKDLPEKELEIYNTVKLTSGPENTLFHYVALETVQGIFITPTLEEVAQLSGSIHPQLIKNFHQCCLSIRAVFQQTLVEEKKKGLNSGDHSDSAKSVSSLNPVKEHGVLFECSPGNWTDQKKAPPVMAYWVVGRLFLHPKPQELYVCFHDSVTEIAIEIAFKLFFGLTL
Assay: cryo-EM structure

B1: human Wdpcp (natural protein, UniProt O95876 1-746, looked up)
chain: MRREFCWDAYSKAAGSRASSPLPRQDRDSFCHQMSFCLTELHLWSLKNTLHIADRDIGIYQYYDKKDPPATEHGNLEKKQKLAESRDYPWTLKNRRPEKLRDSLKELEELMQNSRCVLSKWKNKYVCQLLFGSGVLVSLSLSGPQLEKVVIDRSLVGKLISDTISDALLTDSFIILSFLAQNKLCFIQFTKKMESSDVNKRLEKLSALDYKIFYYEIPGPINKTTERHLAINCVHDRVVCWWPLVNDDAWPWAPISSEKDRANLLLLGYAQGRLEVLSSVRTEWDPLDVRFGTKQPYQVFTVEHSVSVDKEPMADSCIYECIRNKIQCVSVTRIPLKSKAISCCRNVTEDKLILGCEDSSLILYETHRRVTLLAQTELLPSLISCHPSGAILLVGSNQGELQIFDMALSPINIQLLAEDRLPRETLQFSKLFDASSSLVQMQWIAPQVVSQKGEGSDIYDLLFLRFERGPLGVLLFKLGVFTRGQLGLIDIIFQYIHCDEIYEAINILSSMNWDTLGHQCFISMSAIVNHLLRQKLTPEREAQLETSLGTFYAPTRPLLDSTILEYRDQISKYARRFFHHLLRYQRFEKAFLLAVDVGARDLFMDIHYLALDKGELALAEVARKRASDIDAESITSGVELLGPLDRGDMLNEAFIGLSLAPQGEDSFPDNLPPSCPTHRHILQQRILNGSSNRQIIDRRNELEKDICSGFLMTNTCNAEDGELREDGREQEIRDGGSLKMIHFGLV
  binding result: binds

B2: human Fuzzy (natural protein, UniProt Q9BT04 1-418, looked up)
chain: MGEEGTGGTVHLLCLAASSGVPLFCRSSRGGAPARQQLPFSVIGSLNGVHMFGQNLEVQLSSARTENTTVVWKSFHDSITLIVLSSEVGISELRLERLLQMVFGAMVLLVGLEELTNIRNVERLKKDLRASYCLIDSFLGDSELIGDLTQCVDCVIPPEGSLLQEALSGFAEAAGTTFVSLVVSGRVVAATEGWWRLGTPEAVLLPWLVGSLPPQTARDYPVYLPHGSPTVPHRLLTLTLLPSLELCLLCGPSPPLSQLYPQLLERWWQPLLDPLRACLPLGPRALPSGFPLHTDILGLLLLHLELKRCLFTVEPLGDKEPSPEQRRRLLRNFYTLVTSTHFPPEPGPPEKTEDEVYQAQLPRACYLVLGTEEPGTGVRLVALQLGLRRLLLLLSPQSPTHGLRSLATHTLHALTPLL
  binding result: binds
